Entries after “also recorded” stand apart in the source; their conditions may differ.

For the test, the system named is EG7 (EL4 transfected with ovalbumin) and EL4 target cells. Description: CTL activity (51Cr release cytotoxic cell assay) of spleen cells from mice immunized with OVA formulations. It is filed as in vivo. As to conditions: subcutaneous, dose 10 μg, boosted at 14 and 28 days; for CTL activity relative to the other OVA formulations: comparison in words; for CTL response: percent specific 51Cr release. The procedure:
Ovalbumin, PLG/OVA-entrapped particles, small OVA-protein particles (250 nm) and large OVA-protein particles (2500 nm), produced as described above, were administered subcutaneously to mice (dose=10 μg). The animals were boosted at 14 and 28 days. […] two weeks following the last immunization and CTL activity assayed as described in Doe et al., Proc. Natl. Acad. Sci. (1996) 93:8578-8583.
Lymphocyte cultures were prepared as follows. Spleen cells (sc) from immunized mice were cultured in 24-well dishes at 5×10^6 cells per well. Of those cells, 1×10^6 were sensitized with synthetic epitopic peptides from EG7 (EL4 transfected with ovalbumin) and EL4 proteins at a concentration of 10 μM for 1 hour at 37° C., washed, and cocultured with the remaining 4×10^6 untreated sc in 2 ml of culture medium [50% RPMI 1640 and 50% alpha-MEM (GIBCO)] supplemented with heat-inactivated fetal serum, 5×10^−5 M 2-mercaptoethanol, antibiotics, and 5% interleukin-2 (Rat T-Stim, Collaborative Biomedical Products, Bedford, Mass.). Cells were fed with 1 ml of fresh culture medium on days 3 and 5, and cytotoxicity was assayed on day 6.
The cytotoxic cell assay was conducted as follows. EG7 (EL4 transfected with ovalbumin) and EL4 target cells used in the ^51Cr release assays express class I but not class II MHC molecules. Approximately 1×10^6 target cells were incubated in 200 μl of medium containing 50 μCi (1 Ci=37 Gbq) of ^51Cr and synthetic Ovalbumin peptides (1 μm) for 60 min and washed three times. Effector (E) cells were cultured with 5×10^3 target (T) cells at various EST ratios in 200 μl of culture medium in 96-well round-bottom tissue culture plates for 4 hours. The average cpm from duplicate wells was used to calculate percent specific ^51Cr release.

B1: small OVA-protein particles: Heat-stabilized ovalbumin protein particles formed by acetone coacervation, about 250 nm in diameter (protein, UniProt P01012 2-386, looked up)
Ovalbumin: GSIGAASMEFCFDVFKELKVHHANENIFYCPIAIMSALAMVYLGAKDSTRTQINKVVRFDKLPGFGDSIEAQCGTSVNVHSSLRDILNQITKPNDVYSFSLASRLYAEERYPILPEYLQCVKELYRGGLEPINFQTAADQARELINSWVESQTNGIIRNVLQPSSVDSQTAMVLVNAIVFKGLWEKAFKDEDTQAMPFRVTEQESKPVQMMYQIGLFRVASMASEKMKILELPFASGTMSMLVLLPDEVSGLEQLESIINFEKLTEWTSSNVMEERKIKVYLPRMKMEEKYNLTSVLMAMGITDVFSSSANLSGISSAESLKISQAVHAAHAEINEAGREVVGSAEAGVDAASVSEEFRADHPFLFCIKHIATNAVLFFGRCVSP
modifications: heat-stabilized particles
notes: Heat-stabilized ovalbumin protein particles formed by acetone coacervation, about 250 nm in diameter
Consider B1, for which the “CTL activity relative to the other OVA formulations” value was “activity comparable to the large OVA-protein particles; also recorded: more active, e.g., elicited a greater immune response than the PLG/OVA-entrapped particles and ovalbumin alone formulations”; the CTL response entry was “elicited a CTL response”.

B2: large OVA-protein particles: Heat-stabilized ovalbumin protein particles formed by acetone coacervation, about 2.5 μm in diameter (protein, UniProt P01012 2-386, looked up)
Ovalbumin: B1 Ovalbumin
modifications: heat-stabilized particles
notes: Heat-stabilized ovalbumin protein particles formed by acetone coacervation, about 2.5 μm in diameter
As for B2, the “CTL activity relative to the other OVA formulations” value was “more active, e.g., elicited a greater immune response than the PLG/OVA-entrapped particles and ovalbumin alone formulations”; the CTL response result is on record as “elicited a CTL response”.

Source of the values: patent US8529906B2, “Compositions for inducing immune responses” (Novartis Vaccines and Diagnostics, Inc., priority 2003, dated 2013).
